Key:
recombinant mouse TfR-1 [1] = molecular target: T1, recombinant mouse TfR-1 (mouse, UniProt Q62351 89-763); test: phage ELISA
T1 construct: Bought recombinant protein; also called mTfR1
Experimental: (§1) After the third round of selection, instead of pooling bacterial colonies, individual phagemid clones were grown in 1 ml of 2TY medium containing glucose and ampicillin in 96-well blocks and used to rescue the phages. After an overnight culturing, bacteria were spun down and an aliquot of the phage supernatant was sent for Sanger sequencing (Genewiz); VNAR CDR3 sequences were identified using BioEdit (a sequence alignment editor). Another aliquot was blocked with 2.5% milk for phage ELISAs. High-binding ELISA plates (Greiner) were coated with 1 μg/ml of recombinant human or mouse TfR-1. The plates were then blocked with 2.5% milk in PBST. Blocked phages were added to the blocked plates and the VNAR-phage clones binding to the antigens were detected with HRP-labelled anti-M13 coat protein antibodies (Sino Biological), and chromogenic TMB substrate (KLM)
T1 sequence (Q62351 89-763 limits assumed): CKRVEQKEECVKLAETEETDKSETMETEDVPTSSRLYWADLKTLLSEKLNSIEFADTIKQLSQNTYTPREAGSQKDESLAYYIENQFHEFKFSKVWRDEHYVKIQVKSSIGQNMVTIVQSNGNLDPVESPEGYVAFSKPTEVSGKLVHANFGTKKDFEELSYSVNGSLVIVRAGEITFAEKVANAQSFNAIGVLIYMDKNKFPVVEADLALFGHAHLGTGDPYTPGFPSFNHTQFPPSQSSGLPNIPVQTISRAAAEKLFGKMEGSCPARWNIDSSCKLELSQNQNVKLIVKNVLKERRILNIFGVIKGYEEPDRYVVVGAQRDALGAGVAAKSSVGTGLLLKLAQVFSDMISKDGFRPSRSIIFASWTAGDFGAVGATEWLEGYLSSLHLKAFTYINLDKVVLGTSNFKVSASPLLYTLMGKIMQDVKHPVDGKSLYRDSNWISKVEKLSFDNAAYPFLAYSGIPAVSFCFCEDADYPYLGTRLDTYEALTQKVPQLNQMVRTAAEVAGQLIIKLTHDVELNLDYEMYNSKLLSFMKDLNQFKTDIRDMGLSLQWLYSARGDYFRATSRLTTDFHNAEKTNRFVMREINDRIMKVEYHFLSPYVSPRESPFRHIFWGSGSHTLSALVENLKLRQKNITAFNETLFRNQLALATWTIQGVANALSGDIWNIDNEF

recombinant human TfR-1 [2] = molecular target: T2, recombinant human TfR-1 (human, UniProt P02786 89-760); test: phage ELISA
T2 construct: extracellular domain; also called hTfR1; human transferrin receptor-1
Experimental: as §1
T2 sequence (P02786 89-760): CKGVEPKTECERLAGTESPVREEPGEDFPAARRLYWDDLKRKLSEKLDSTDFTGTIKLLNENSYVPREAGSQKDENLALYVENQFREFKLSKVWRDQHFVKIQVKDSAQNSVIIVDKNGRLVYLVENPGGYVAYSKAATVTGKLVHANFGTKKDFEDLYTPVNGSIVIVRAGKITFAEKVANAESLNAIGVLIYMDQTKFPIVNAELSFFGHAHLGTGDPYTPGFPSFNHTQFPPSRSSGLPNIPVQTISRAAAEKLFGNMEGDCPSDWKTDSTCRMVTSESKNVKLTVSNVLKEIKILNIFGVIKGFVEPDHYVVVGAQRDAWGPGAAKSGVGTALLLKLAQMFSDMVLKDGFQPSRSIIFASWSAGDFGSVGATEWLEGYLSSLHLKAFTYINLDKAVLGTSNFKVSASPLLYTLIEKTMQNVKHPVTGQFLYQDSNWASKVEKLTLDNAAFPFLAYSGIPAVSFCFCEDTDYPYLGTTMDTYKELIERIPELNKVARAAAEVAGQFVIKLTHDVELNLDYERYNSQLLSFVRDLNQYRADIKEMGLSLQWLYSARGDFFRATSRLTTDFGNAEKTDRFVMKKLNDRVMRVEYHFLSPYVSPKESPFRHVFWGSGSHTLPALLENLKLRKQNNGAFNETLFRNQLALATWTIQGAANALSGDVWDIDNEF

recombinant mouse TfR-1 [3] = molecular target: T1, recombinant mouse TfR-1; test: ELISA titration, large-scale purified VNAR-hFc
recombinant human TfR-1 [4] = molecular target: T2, recombinant human TfR-1; test: ELISA titration, large-scale purified VNAR-hFc
recombinant mouse TfR-1 [5] = molecular target: T3, recombinant mouse TfR-1 (mouse, UniProt Q62351 89-763); test: phage ELISA, VNAR-phage on plate-coated recombinant mouse TfR-1
T3 construct: Coated at 1 ug/ml for the phage ELISA; also called mTfR1; mouse transferrin receptor-1
T3 sequence (Q62351 89-763 limits assumed): as the sequence (Q62351 89-763 limits assumed) above

recombinant human TfR-1 [6] = molecular target: T4, recombinant human TfR-1 (human, UniProt P02786 89-760); test: phage ELISA, VNAR-phage on plate-coated recombinant human TfR-1
T4 construct: also called hTfR1; human transferrin receptor-1
T4 sequence (P02786 89-760 limits assumed): as the sequence (P02786 89-760) above

Binder | phage ELISA A450 (recombinant mouse TfR-1 [5]) [A450] | phage ELISA A450 (recombinant human TfR-1 [6]) [A450] | other results
Clone 4 (VNAR, VNAR on phage) VNAR: ARVDQTPQTITKETGESLTINCVLRDSNCALPSTYWYRKKSGSTNEESISKGGRYVETVNSGSKSFSLRINDLTVKDSGTYRCKVMSQEVRWQMTCKIVVMDVYGGGTVVTVNA | – | – | binding result (recombinant mouse TfR-1 [1]): binds; binding result (recombinant human TfR-1 [2]): binds
Clone 5 (VNAR, VNAR on phage) VNAR: ARVDQTPQTITKETGESLTINCVLRDSNCALSSTLWYRTKSGSRNEESISKGGRYVETVNSGSKSFSLRINDLTVKDSGTYRCNVQQYDCIASFDVYGDGTAVTVNA | – | – | binding result (recombinant mouse TfR-1 [1]): binds; binding result (recombinant human TfR-1 [2]): binds
Clone 6 (VNAR, VNAR on phage) VNAR: ARVDQTPQTVTKETGESLTINCVLRDSNCALSSTLWYRTKSGSRNEESISKGGRYVETVNSGSKSFSLRINDLTVEDSGTYRCNVCSNYCPIKDDVYGDGTAVTVNA | – | – | binding result (recombinant mouse TfR-1 [1]): binds; binding result (recombinant human TfR-1 [2]): binds
Clone 9 (VNAR, VNAR on phage) VNAR: ARVDQTPQTITKETGESLTINCVLRDSNCALPSTWYRKKSDSTNEESISKGGRYVETVNSGSKSFSLRINDLTVKDSGTYRCKVLYPNCYRCMWGQVTDVYGGGTAVTVNA | – | – | binding result (recombinant mouse TfR-1 [1]): binds; binding result (recombinant human TfR-1 [2]): binds
Clone 8.5 VNAR-hFc fusion (Fc fusion, human, not shown: small tags and cut ends, domain: Fc (CH2 and CH3); also called the variant) chain (part 1 of 2): ARVDQTPQTITKETGESLTINCVLRDSNCALPSTYWYRKKSGSTNEESISKGGRYVETVNSGSKSFSLRINDLTVEDSGTYRCKVIAQLGWWLRGCNYRKHDVYGDGTAVTVNA chain (part 2 of 2): DKTHTCPPCPAPPVAGPSVFLFPPKPKDTLMISRTPEVTCVVVDVSHEDPEVKFNWYVDGVEVHNAKTKPREEQYNSTYRVVSVLTVLHQDWLNGKEYKCKVSNKGLPSSIEKTISKAKGQPREPQVYTLPPSRDELTKNQVSLTCLVKGFYPSDIAVEWESNGQPENNYKTTPPVLDSDGSFFLYSKLTVDKSRWQQGNVFSCSVMHEALHNHYTQKSLSLSPGK | – | – | EC50 (recombinant mouse TfR-1 [3]): 47 nM; fold difference of EC50 against parental Clone 8 (recombinant mouse TfR-1 [3]): > 25 fold; EC50 (recombinant human TfR-1 [4]): 27 nM; fold difference of EC50 against parental Clone 8 (recombinant human TfR-1 [4]): > 25 fold
Clone 8.149 (VNAR) VNAR: ARVDQTPQTITKETGESLTINCVLRDSNCALPSTYWYRKKSGSTNEESISKGGRYVETVNSGSKSFSLRINDLTVEDSGTYRCKVIAQLSSILRGCNYHPHDVYGDGTAVTVNA | 0.045 | 0.052 | –
Clone 8.159 (VNAR) VNAR: ARVDQTPQTITKETGESLTINCVLRDSNCALPSTYWYRKKSGSTNEESISKGGRYVETVNSGSKSFSLRINDLTVEDSGTYRCKVIAQLSSDGQGCNYRKHDVYGDGTAVTVNA | 0.043 | 0.057 | –
Clone 8.155 (VNAR) VNAR: ARVDQTPQTITKETGESLTINCVLRDSNCALPSTYWYRKKSGSTNEESISKGGRYVETVNSGSKSFSLRINDLTVEDSGTYRCKVIAQLSSILRGCNYKIADVYGDGTAVTVNA | 0.044 | 0.053 | –
Clone 8.160 (VNAR) VNAR: ARVDQTPQTITKETGESLTINCVLRDSNCALPSTYWYRKKSGSTNEESISKGGRYVETVNSGSKSFSLRINDLTVEDSGTYRCKVIAQLSSILRGCFPQKHDVYGDGTAVTVNA | 0.043 | 0.049 | –
Clone 8.156 (VNAR) VNAR: ARVDQTPQTITKETGESLTINCVLRDSNCALPSTYWYRKKSGSTNEESISKGGRYVETVNSGSKSFSLRINDLTVEDSGTYRCKVIAQLSSQSVGCNYRKHDVYGDGTAVTVNA | 0.044 | 0.062 | –
Clone 8.158 (VNAR) VNAR: ARVDQTPQTITKETGESLTINCVLRDSNCALPSTYWYRKKSGSTNEESISKGGRYVETVNSGSKSFSLRINDLTVEDSGTYRCKVIAQLNVILRGCNYRKHDVYGDGTAVTVNA | 0.043 | 0.046 | –
Clone 8.153 (VNAR) VNAR: ARVDQTPQTITKETGESLTINCVLRDSNCALPSTYWYRKKSGSTNEESISKGGRYVETVNSGSKSFSLRINDLTVEDSGTYRCKVIAQLAFGLRGCNYRKHDVYGDGTAVTVNA | 0.044 | 0.048 | –
Clone 8.154 (VNAR) VNAR: ARVDQTPQTITKETGESLTINCVLRDSNCALPSTYWYRKKSGSTNEESISKGGRYVETVNSGSKSFSLRINDLTVEDSGTYRCKVIAQLSSILRGCGGSKHDVYGDGTAVTVNA | 0.044 | 0.055 | –
Clone 8.157 (VNAR) VNAR: ARVDQTPQTITKETGESLTINCVLRDSNCALPSTYWYRKKSGSTNEESISKGGRYVETVNSGSKSFSLRINDLTVEDSGTYRCKVIAYRKSIVRGCNYRKHDVYGDGTAVTVNA | 0.044 | 0.048 | –
Clone 8.152 (VNAR) VNAR: ARVDQTPQTITKETGESLTINCVLRDSNCALPSTYWYRKKSGSTNEESISKGGRYVETVNSGSKSFSLRINDLTVEDSGTYRCKVMDQLSNMLRGCNYRKHDVYGDGTAVTVNA | 0.045 | 0.059 | –
Clone 8.150 (VNAR) VNAR: ARVDQTPQTITKETGESLTINCVLRDSNCALPSTYWYRKKSGSTNEESISKGGRYVETVNSGSKSFSLRINDLTVEDSGTYRCKVIAQLSSILRGCNYNQQDVYGDGTAVTVNA | 0.045 | 0.058 | –
Clone 8.161 (VNAR) VNAR: ARVDQTPQTITKETGESLTINCVLRDSNCALPSTYWYRKKSGSTNEESISKGGRYVETVNSGSKSFSLRINDLTVEDSGTYRCKVIAQLSSILRGCIAGKHDVYGDGTAVTVNA | 0.043 | 0.048 | –
Clone 8.151 (VNAR) VNAR: ARVDQTPQTITKETGESLTINCVLRDSNCALPSTYWYRKKSGSTNEESISKGGRYVETVNSGSKSFSLRINDLTVEDSGTYRCKVIAQLSSLERGCNYFQFDVYGDGTAVTVNA | 0.045 | 0.048 | –
Clone 8.162 (VNAR) VNAR: ARVDQTPQTITKETGESLTINCVLRDSNCALPSTYWYRKKSGSTNEESISKGGRYVETVNSGSKSFSLRINDLTVEDSGTYRCKVIAQLSSNRNGCNYRKHDVYGDGTAVTVNA | 0.042 | 0.055 | –
Clone 7 (VNAR, VNAR on phage) VNAR: ARVDQTPQTITKETGESLTINCVLRDNNCALSSTLWYRTKSGSRNEESISKGGRYVETVNSGSKSFSLRINDLTVEDSGTYRCNVQSWPPGNGWWCDVYGDGTAVTVNA | – | – | binding result (recombinant mouse TfR-1 [1]): binds; binding result (recombinant human TfR-1 [2]): binds

— US20210395381A1 (OSSIANIX, published 2021)
